The source of these data is patent US20140080766A1 (MIT, published 2014).

The target of this assay is C7LLO (CEA-binding Fn3 - listeriolysin O fusion protein).

B1: carcinoembryonic antigen (CEA) on HT-1080(CEA) and HT-29 cells (other, human, UniProt P06731 35-685, looked up)
chain: KLTIESTPFNVAEGKEVLLLVHNLPQHLFGYSWYKGERVDGNRQIIGYVIGTQQATPGPAYSGREIIYPNASLLIQNIIQNDTGFYTLHVIKSDLVNEEATGQFRVYPELPKPSISSNNSKPVEDKDAVAFTCEPETQDATYLWWVNNQSLPVSPRLQLSNGNRTLTLFNVTRNDTASYKCETQNPVSARRSDSVILNVLYGPDAPTISPLNTSYRSGENLNLSCHAASNPPAQYSWFVNGTFQQSTQELFIPNITVNNSGSYTCQAHNSDTGLNRTTVTTITVYAEPPKPFITSNNSNPVEDEDAVALTCEPEIQNTTYLWWVNNQSLPVSPRLQLSNDNRTLTLLSVTRNDVGPYECGIQNELSVDHSDPVILNVLYGPDDPTISPSYTYYRPGVNLSLSCHAASNPPAQYSWLIDGNIQQHTQELFISNITEKNSGLYTCQANNSASGHSRTTVKTITVSAELPKPSISSNNSKPVEDKDAVAFTCEPEAQNTTYLWWVNGQSLPVSPRLQLSNGNRTLTLFNVTRNDARAYVCGIQNSVSANRSDPVTLDVLYGPDTPIISPPDSSYLSGANLNLSCHSASNPSPQYSWRINGIPQQHTQVLFIAKITPNNNGTYACFVSNLATGRNNSIVKSITVSASGTSPGLSA
The term Kd denotes the free concentration of one partner at which half of the binding sites on the other are occupied at equilibrium, for simple one-to-one binding. A lower Kd goes with higher affinity. The molecule B1 gave a dissociation constant (Kd) of 4.09 nM. In other words, the single-digit nanomolar range.
